Measured values published in the DeepSol protein solubility set.

assay: soluble on expression in E. coli; label from the status in PepcDB or PDB records

Sequence	soluble on expression in E. coli
MGSDKIHHHHHHMVLPGFFVPVKGWCPLPGVVIFTDVPAVVPATVSAHEAACPAGSPVLPRVSGLPPLRDGSRGRDCPMGASHVWDLPFSPPAGAALPCRRSRSHGLAPAPRVYGMLLVRAWRCSMDRDTVAGLMADALLERRFRHNDGAHPALAALRELAVNQGTDAGRRMVADDPHEVGSPPLSPIDPVELLQHDGALPSLPTVYVELRQRLADPDCSVREAAEVITRDAGLTAWLLRVVNSASYGLSGRVDTVTQAVAVVGMRQLETMVASGMLQSLMRSVPRGLVDMERLWRHSLAVGGAAREIWRLMGRPDPERLFVAGVLHDVGYLAFVMMAPQKAAQLVPRLRASHLPGHLAERELLGFDHAKLGGMLLHKWNMPVPLVMSVLRHHEPESVPSMPEPSVIHLADIVARAMGYGPDAESAVPPLSASAWEASGLTPQHLEAVANAMTAMVDDLGTAVMCTTV	not soluble
MDISSTEIWDAIRRNSYLLYYQPKVDAKTNKIIGFEGLVRLKTATTILAPIDFFDDIVLLNATREMQDFVAETAIKQINQLGGRFSISINIPAHYVASSTYMTFLHDYVKEHLKYPECLEIEIIERGEITELAIADKNLRKIKDLGVKVSMDDFGKGYSSLAYLRSLPIDIVKTDMSFIALLKTDRKQQIIIRAIVNLCHDLGGKVVTEGVEDMEQVEKLREMKVDYFQGYYFSRPLPMEEIKQKYSIV	soluble
MPLEASELKPTAGPLEASELKPTAGPLEASELKPTAGPLEASELKPTAGPLEASELKPTAGPLEASELKPTAGPLEASELKPTAGMKKNSYLLSCLAIAVSSACHAEVLTYPDPLGSSQSDFGGTGLLQMPNARIAPEGEFSVNYRDNDQYRFYSTSVALFPWLEGTIRYTDVRTRKYSQWEDFSGDQSYKDKSFDFKLRLWEEGYWLPQVAFGKRDIAGTGLFDGEYLVASKQAGPFDFTLGMAWGYAGNAGNITNPFCRVSDKYCHRAESHDAGDISFSDIFRGPASIFGGIEYQTPWNPLRLKLEYDGNNYQNDFAGKLPQASHFNVGAVYRAASWADLNLSYERGNTLMFGFTLRTNFNDLRPALRDTPKPAYQPAPESEGLQYTTVANQLTALKYNAGFDAPEIQLRDKTLYMSGQQYKYRDSREAVDRANRILVNNLPQGVEKISVTQKREHMAMVTTETDVASLRKQLAGTAPGQSEPLQQQRVEAEDLSAFGRGYRIREDRFSYSFNPTLSQSLGGPEDFYMFQLGLMSSARYWFTDHLLLDGGIFTNIYNNYDKFKSSLLPADSTLPRVRTHIRDYVRNDVYLNNLQANYFADLGNGFYGQVYGGYLETMYAGVGSELLYRPLDACWALGVDVNYVKQRDWDNMMRFTDYSTPTGFVTAYWNPPTLNGVLMKLSVGQYLAKDKGATIDVAKRFDSGVAVGVWAAISNVSKDDYGEGGFSKGFYISIPFDLMTIGPNRNRAVVSWTPLTRDGGQMLSRKYQLYPMTAEREVPVGQLEHHHHHH	not soluble
EGPIDKLKTPEDVPNDPLPLISDFEWSTLDIDDNLQLDELYKLLYDNYVEDIDATFRFKYSHEFFQWALKPPGWRKDWHVGVRVKSTGKLVAFIAATPVTFKLNKSNKVIDSVEINFLCIHKKLRNKRLAPVLIKEITRRVNKQNIWQALYTGGSILPTPLTTCRYQHRPINWSKLHDVGFSHLPPNQTKSSMVASYTLPNNPKLKGLRPMTGKDVSTVLSLLYKYQERFDIVQLFTEEEFKHWMLGHDENSDSNVVKSYVVEDENGIITDYFSYYLLPFTVLDNAQHDELGIAYLFYYASDSFEKPNYKKRLNELITDALITSKKFGVDVFNCLTCQDNTYFLKDCKFGSGDGFLNYYLFNYRTFPMDGGIDKKTKEVVEDQTSGIGVVLL	soluble
MGSDKIHHHHHHMQLPISQYNELLQKKLEKLTALLHPFNAPDIQVFDSPTSHYRMRAEFRIWHEQDDFYHIMFDQATLQRYRVDEFPIASMLINRMMQTLLPLLKQQEVLHKKLFQIDYLSTLSNKIIVSLLYHKTLTEEWESAAKNLKDLLEKQDFDVQIIGRASKQKICFEQDYVDEVLPVNGRNYVYRQVENSFTQPNATVNCKMLEWAIDCTQNSEGDLLELYCGNGNFSIALAQNFRKVLATEIAKPSVAAAQFNIAENKVDNLQIIRMSAEEFTQAMNGVRAFNRLKGIDLKSYECNTIFVDPPRAGLDPDTVKLVQNYDRILYISCNPHTLCDNLVELSKTHRIEKAALFDQFPYTDHMESGLWLIRK	not soluble
MSLQSKEDFIEMRVPASAEYVSLIRLTLSGVFSRAGATYDDIEDAKIAVSEAVTNAVKHAYKENNNVGIINIYFEILEDKIKVVISDKGDSFDYETTKSKIGPYDKDENIDFLREGGLGLFLIESLMDEVTVYKESGVTISMTKYIKKEQVRNNGERVEISEGHHHHHH	soluble
MGSDKIHHHHHHMKNVNQELLNHVILHKDRIPHFHKDFPLILFWSHRSGCTTLANWFFFQIGLFNEAKKYHDFIHYYEFWVYKNNTNYIPELQNGLLTAEKAVCKLVRNPYTRAVSSFLLLADNPYAIPQWESIRQYLYNDKYSNRGISFKQFLYYVRALGPNSLTMDIHFSQQYVPGEENFIQHYIPLEDFNTQITKIEHTYDLVKSNLALLTNSDHHRAHKMMYTGSYAELSITDVAFPRFPTYESFYDEETMALVTEIYAQDFEMYPYTKGIF	not soluble
MSSVKDTMTTQVATVSPNQTIQEAASLMKQHNVGAIPVVEQGVLKGMLTDRDIALRTTAQGRDGQTPVSEVMSTELVSGNPNMSLEDASQLMAQHQIRRLPIVDQNNLVGIVALGDLAVNQMSNESAGSALTNISHQNIH	not soluble
MGRLGWVDPESFMQRNHELMDAYSAGKLAMEEFMAFSLEPMAGRTPEEVDHLVGPWVEDVIEPIIYSDACKCIAQHRAKGDRILVISASGVHLVKPIAERLGIDEVLGIELDVQHGVYSGATVGVLTYREGKITRLMEWLDAEGENLEGASFYSDSRNDLPLLLKVDHPNVVNPDPVLLEHAQQAGWPVHTWV	not soluble
MAHHHHHHMQAAAPGQTLSSALRFWADVSYGDAPPAALIDYPPLGFEEDSSRLTVGALQASRDAAAADSRRQLGLKTQRASEDVDGSAHPALLLGVKEESSTLAVTREELEGEEGPAWLQPPLLLQLDDGLEDRQFAAATTTGRTAPVPHLRYDGAGLLAVMHVHSSGIAYVGYPRASDTVSSAEPTDGLVRLPDNVPPADPLAVAAPTPAPICSLPMSSSTGFVRGLLGLS	not soluble
MGSDKIHHHHHHMLTQLQCPSCGGRLLSNKEGRNSILCQSCKKEFSAREGVLCFVPDNVFTQLDNIDYDKHYSISDESSQQAFASLKGVLGNRLKNNYGVLLEIGAGTGGFTKGLLTNIKVNRAIVTDISPKMLSICRKRVLGESHLADDVIFATYSTGENILPSNSIDCIIGSFVLHHILDYKSFIRKSYDLLKKDGAFIFSEPCYKFHDALVLTMSEILETLIGEGDNSEVDLTRLSNWIHELHFNLKYVGDQDVLSGREDKHLFIRSEVENSAFDVGFELVEILPYGDPDAINQCLLSYLPQLDLSHIFLQKVSNLFDLYHIKYFGLIEREDAVPAYVFFFKKKMNLFSRLFKNV	not soluble
MDADMDYERPNVETIKCVVVGDNAVGKTRLICARACNTTLTQYQLLATHVPTVWAIDQYRVCQEVLERSRDVVDEVSVSLRLWDTFGDHHKDRRFAYGRSDVVVLCFSIANPNSLNHVKSMWYPEIKHFCPRTPVILVGCQLDLRYADLEAVNRARRPLARPIKRGDILPPEKGREVAKELGLPYYETSVFDQFGIKDVFDNAIRAALISRRHLQFWKSHLKKVQKPLLQAPFLPPKAPPPVIKIPECPSMGTNEAACLLDNPLCADVLFILQDQEHIFAHRIYLATSSSKFYDLFLMECEESPNGSEGACEKEKQSRDFQGRILSVDPEEEREEGPPRIPQADQWKSSNKSLVEALGLEAEGAVPETQTLTGWSKGFIGMHREMQVNPISKRMGPMTVVRMDASVQPGPFRTLLQFLYTGQLDEKEKDLVGLAQIAEVLEMFDLRMMVENIMNKEAFMNQEITKAFHVRKANRIKECLSKGTFSDVTFKLDDGAISAHKPLLICSCEWMAAMFGGSFVESANSEVYLPNINKISMQAVLDYLYTKQLSPNLDLDPLELIALANRFCLPHLVALAEQHAVQELTKAATSGVGIDGEVLSYLELAQFHNAHQLAAWCLHHICTNYNSVCSKFRKEIKSKSADNQEYFERHRWPPVWYLKEEDHYQRVKREREKEDIALNKHRSRRKWCFWNSSPAVA	soluble
MGSSHHHHHHDYDIPTTENLYFQGHMKVKILVDSTADVPFSWMEKYDIDSIPLYVVWEDGRSEPDEREPEEIMNFYKRIREAGSVPKTSQPSVEDFKKRYLKYKEEDYDVVLVLTLSSKLSGTYNSAVLASKEVDIPVYVVDTLLASGAIPLPARVAREMLENGATIEEVLKKLDERMKNKDFKAIFYVSNFDYLVKGGRVSKFQGFVGNLLKIRVCLHIENGELIPYRKVRGDKKAIEALIEKLREDTPEGSKLRVIGVHADNEAGVVELLNTLRKSYEVVDEIISPMGKVITTHVGPGTVGFGIEVLERKR	soluble
MKCAICDSVALSLHFGAPSCKACAAFFRRTVALDITYDCITGTLDCEVNFERRMACKRCRYQKCIDNNMQRYLVQSKKGRPDASTANGIENPTTSASPSIPSPFSPPCPSSHNSAPSGLLSPMETDEIQKLNEHFFKMDSNLNKSRRMAFTDSRLLDIFSGVCKMPFEKHQLQPFDFRSYRGYQKQEYVMLFNYANTLPGFQELSNASQNFLFRIACGVDYVISSSYYTLCIGTESNLLINQDGTYIQMMPLPLMGDEPGTELMFTRKEELEKYRNIIKPRVNSWLEFIPLFKSLELSFEENAILKALCCWQTAHFKLEECDKENVRKQKSLLVQCLLKFCIDTYGEEEGPARAGNIILFSSSISVSLMGTSRNVVYGLKLPYISKS	not soluble
MEEVINYRSDLFRLSDNLETLHIEEKFGIKCDLTCKIEENMTTFEFQFDLRDFKNNGFKQLTAEITIRPDPENPIFELIHRKLDILDIDEHRVNFSVENKNTQSLAETRAILELILTPIREKFSYREMFMPSQKTDAILMIGGEKLHVNKAFLSFHSDFFHELFSASSTESEIPEIPIRDVSAEDMGLLLSTIYPDLVFPTDKTAAKLLTLANRFQMRAVTAQVEHHLLWHSDIEIEKLILMANTFGMKDLLKECTCDGGNKTPGEVPISVQ	not soluble
MGSDKIHHHHHHMTRRPPLINRLGATPVHPERDPAHPLVVFGDNRFCAGELLDVQKMAGPHMHSQIELNFVLEGSMTYWFDGRELTISEGRLCLFWGMIPHQVIDRREGTRFICLYVPMSVFLGLASLSQFRDSVFRGAVIEALHLRAWDREIFLRWRDELLGGDEGDIEIVRSELTARLMRIERDGWRDLREQGSALASLGQRDAGWMLHVEKMLRFIGEHAPDTISAEDVGRAAGLHPNYAMSLFKRAVGTTINQAIIRHRLDTAQSLLISSDMPITEVAYESGFGSLSTFYEAFQRRFMEKPVQYRRRMRAKGTAAQSIA	not soluble
MKLKHKRDDKMRFDIKKVLELAEKDFETAWRETRALIKDKHIDNKYPRLKPVYGKPHPVMETIERLRQAYLRMGFEEMINPVIVDEMEIYKQFGPEAMAVLDRCFYLAGLPRPDVGLGNEKVEIIKNLGIDIDEEKKERLREVLHLYKKGAIDGDDLVFEIAKALNVSNEMGLKVLETAFPEFKDLKPESTTLTLRSHMTSGWFITLSSLIKKRKLPLKLFSIDRCFRREQREDRSHLMSYHSASCVVVGEDVSVDDGKVVAEGLLAQFGFTKFKFKPDEKKSKYYTPETQTEVYAYHPKLGEWIEVATFGVYSPIALAKYNIDVPVMNLGLGVERLAMIIYGYEDVRAMVYPQFYEYRLSDRDIAGMIRVDKVPILDEFYNFANELIDICIANKDKESPCSVEVKREFNFNGERRVIKVEIFENEPNKKLLGPSVLNEVYVYDGNIYGIPPTFEGVKEQYIPILKKAKEEGVSTNIRYIDGIIYKLVAKIEEALVSNVDEFKFRVPIVRSLSDINLKIDELALKQIMGENKVIDVRGPVFLNAKVEIK	soluble
